# Literature values in article PMC4041007.
# What was measured:
# [1] = target: LLT1 (Homo sapiens) (UniProt Q9UHP7)
# [2] = target: KACL (Homo sapiens) (UniProt Q6UVW9)
# UniProt Q6UVW9, sequence (Q6UVW9 whole entry): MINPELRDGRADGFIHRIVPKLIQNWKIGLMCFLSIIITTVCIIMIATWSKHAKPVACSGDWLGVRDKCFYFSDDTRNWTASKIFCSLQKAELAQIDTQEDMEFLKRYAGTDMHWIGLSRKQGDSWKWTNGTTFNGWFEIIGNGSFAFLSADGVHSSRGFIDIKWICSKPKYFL
# UniProt Q9UHP7, sequence (Q9UHP7 whole entry): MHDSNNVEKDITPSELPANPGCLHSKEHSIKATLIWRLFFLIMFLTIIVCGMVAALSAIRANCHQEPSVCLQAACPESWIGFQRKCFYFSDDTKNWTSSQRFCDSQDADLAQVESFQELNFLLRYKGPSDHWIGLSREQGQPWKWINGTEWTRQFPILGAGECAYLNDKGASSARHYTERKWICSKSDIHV
Kd [1] [µM],Kd [2] [µM],Substance
50,,NKR-P1A (from UniProt Q12918)
,0.002,NKp65 (from UniProt D3W0D1)
